Experimental data published in IntAct's records for PubMed 12782684.

B1: Ras-like protein 2 (Saccharomyces cerevisiae), P01120 (parent)
chain: MPLNKSNIREYKLVVVGGGGVGKSALTIQLTQSHFVDEYDPTIEDSYRKQVVIDDEVSILDILDTAGQEEYSAMREQYMRNGEGFLLVYSITSKSSLDELMTYYQQILRVKDTDYVPIVVVGNKSDLENEKQVSYQDGLNMAKQMNAPFLETSAKQAINVEEAFYTLARLVRDEGGKYNKTLTENDNSKQTSQDTKGSGANSVPRNSGGHRKMSNAANGKNVNSSTTVVNARNASIESKTGLAGNQATNGKTQTDRTNIDNSTGQAGQANAQSANTVNNRVNNNSKAGQVSNAKQARKQQAAPGGNTSEASKSGSGGCCIIS
partner: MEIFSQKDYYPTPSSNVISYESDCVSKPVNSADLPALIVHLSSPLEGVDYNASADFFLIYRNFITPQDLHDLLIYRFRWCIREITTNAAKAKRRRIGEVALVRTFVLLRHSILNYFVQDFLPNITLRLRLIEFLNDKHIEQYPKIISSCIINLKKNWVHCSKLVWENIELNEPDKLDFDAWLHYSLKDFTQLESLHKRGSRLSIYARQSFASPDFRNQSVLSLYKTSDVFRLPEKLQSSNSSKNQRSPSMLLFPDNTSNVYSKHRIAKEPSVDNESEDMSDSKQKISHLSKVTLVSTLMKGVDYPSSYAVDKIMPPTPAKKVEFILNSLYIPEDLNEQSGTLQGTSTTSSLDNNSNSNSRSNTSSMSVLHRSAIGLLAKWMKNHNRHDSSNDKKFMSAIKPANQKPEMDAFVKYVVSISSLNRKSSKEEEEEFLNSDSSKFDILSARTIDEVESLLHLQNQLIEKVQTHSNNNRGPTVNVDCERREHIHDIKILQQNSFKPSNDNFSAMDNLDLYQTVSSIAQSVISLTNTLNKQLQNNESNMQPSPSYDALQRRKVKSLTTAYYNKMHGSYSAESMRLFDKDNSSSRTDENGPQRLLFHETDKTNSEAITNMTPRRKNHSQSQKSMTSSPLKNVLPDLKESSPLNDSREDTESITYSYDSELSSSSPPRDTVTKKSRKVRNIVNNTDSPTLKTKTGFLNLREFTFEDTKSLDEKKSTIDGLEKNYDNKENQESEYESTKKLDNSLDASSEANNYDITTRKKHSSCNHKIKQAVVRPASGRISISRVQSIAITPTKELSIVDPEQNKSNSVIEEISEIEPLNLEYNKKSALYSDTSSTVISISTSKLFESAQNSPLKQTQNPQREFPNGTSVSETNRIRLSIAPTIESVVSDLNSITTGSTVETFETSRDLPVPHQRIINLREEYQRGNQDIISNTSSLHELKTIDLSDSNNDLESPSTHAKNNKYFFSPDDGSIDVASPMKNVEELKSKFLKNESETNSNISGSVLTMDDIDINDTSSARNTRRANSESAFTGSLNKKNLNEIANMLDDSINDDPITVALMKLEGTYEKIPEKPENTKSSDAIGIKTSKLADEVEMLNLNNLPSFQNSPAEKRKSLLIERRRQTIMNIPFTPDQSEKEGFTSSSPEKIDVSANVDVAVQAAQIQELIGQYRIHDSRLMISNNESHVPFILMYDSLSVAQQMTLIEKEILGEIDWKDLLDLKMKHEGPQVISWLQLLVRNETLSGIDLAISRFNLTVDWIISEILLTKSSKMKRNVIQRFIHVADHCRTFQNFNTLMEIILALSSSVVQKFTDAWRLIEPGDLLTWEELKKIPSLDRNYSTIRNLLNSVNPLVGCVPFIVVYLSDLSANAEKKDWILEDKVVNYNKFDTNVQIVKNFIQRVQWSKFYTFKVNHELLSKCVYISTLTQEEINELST

Variants of: B1
Settings: with lte1_yeast LTE1, P07866

Variant | effect of a mutation on the interaction
MPLNKSNIREYKLVVVGGVGVGKSALTIQLTQSHFVDEYDPTIEDSYRKQVVIDDEVSILDILDTAGQEEYSAMREQYMRNGEGFLLVYSITSKSSLDELMTYYQQILRVKDTDYVPIVVVGNKSDLENEKQVSYQDGLNMAKQMNAPFLETSAKQAINVEEAFYTLARLVRDEGGKYNKTLTENDNSKQTSQDTKGSGANSVPRNSGGHRKMSNAANGKNVNSSTTVVNARNASIESKTGLAGNQATNGKTQTDRTNIDNSTGQAGQANAQSANTVNNRVNNNSKAGQVSNAKQARKQQAAPGGNTSEASKSGSGGCCIIS [G19V] | increasing interaction

Variants of: B1
Settings: with lte1_yeast LTE1, P07866
Remark: another data set of the same source

Variant | effect of a mutation on the interaction
MPLNKSNIREYKLVVVGGGGVGKSALTIQLTQSHFVDEYDPTIEDSYRKQVVIDDEVSILDILDTAGQEEYSAMREQYMRNGEGFLLVYSITSKSSLDELMTYYQQILRVKDTDYVPIVVVGNKSDLENEKQVSYQDGLNMAKQMNAPFLETSAKQAINVEEAFYTLARLVRDEGGKYNKTLTENDNSKQTSQDTKGSGANSVPRNSGGHRKMSNAANGKNVNSSTTVVNARNASIESKTGLAGNQATNGKTQTDRTNIDNSTGQAGQANAQSANTVNNRVNNNSKAGQVSNAKQARKQQAAPGGNTSEASKSGSGGSCIIS [C318S] | disrupting interaction

Variants of: B1
Settings: with lte1_yeast LTE1, P07866
Remark: another data set of the same source

Variant | effect of a mutation on the interaction
MPLNKSNIREYKLVVVGGGGVNKSALTIQLTQSHFVDEYDPTIEDSYRKQVVIDDEVSILDILDTAGQEEYSAMREQYMRNGEGFLLVYSITSKSSLDELMTYYQQILRVKDTDYVPIVVVGNKSDLENEKQVSYQDGLNMAKQMNAPFLETSAKQAINVEEAFYTLARLVRDEGGKYNKTLTENDNSKQTSQDTKGSGANSVPRNSGGHRKMSNAANGKNVNSSTTVVNARNASIESKTGLAGNQATNGKTQTDRTNIDNSTGQAGQANAQSANTVNNRVNNNSKAGQVSNAKQARKQQAAPGGNTSEASKSGSGGCCIIS [G22N] | disrupting interaction
